The values below are quoted from earlier work in article PMC6136348, “In the quest for new targets for pathogen eradication: the adenylosuccinate synthetase from the bacterium Helicobacter pylori” (Journal of Enzyme Inhibition and Medicinal Chemistry, 2018).

The target in the data set is Adenylosuccinate synthetase (Escherichia coli) (UniProt P0A7D4).

Adenylosuccinate synthetase, sequence (P0A7D4 2-432): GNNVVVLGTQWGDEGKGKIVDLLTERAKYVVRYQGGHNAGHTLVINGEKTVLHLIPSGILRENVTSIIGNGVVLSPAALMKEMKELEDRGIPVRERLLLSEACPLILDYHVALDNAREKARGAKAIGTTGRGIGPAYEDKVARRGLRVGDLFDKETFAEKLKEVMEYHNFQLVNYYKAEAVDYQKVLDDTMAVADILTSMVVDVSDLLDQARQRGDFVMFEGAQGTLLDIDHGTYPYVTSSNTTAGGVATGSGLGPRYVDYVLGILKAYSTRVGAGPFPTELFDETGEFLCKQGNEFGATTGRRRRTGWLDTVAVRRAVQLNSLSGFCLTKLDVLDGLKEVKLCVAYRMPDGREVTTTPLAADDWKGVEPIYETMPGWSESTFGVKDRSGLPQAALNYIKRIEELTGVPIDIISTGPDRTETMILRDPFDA

For orientation: Kd means the free concentration of one partner at which half of the binding sites on the other are occupied at equilibrium, for simple one-to-one binding. Take “Adenylosuccinate synthetase (from UniProt P0A7D4)”: the Kd is 10 µM.
